From patent publication US20250243281A1 (IMMUNITAS THERAPEUTICS, published 2025)
Where two headings read alike, the source gives them in different places.

T1: hKLRF2 (human, UniProt D3W0D1 1-207)
T1 construct: Overexpressed on HEK293 cells
T1 sequence: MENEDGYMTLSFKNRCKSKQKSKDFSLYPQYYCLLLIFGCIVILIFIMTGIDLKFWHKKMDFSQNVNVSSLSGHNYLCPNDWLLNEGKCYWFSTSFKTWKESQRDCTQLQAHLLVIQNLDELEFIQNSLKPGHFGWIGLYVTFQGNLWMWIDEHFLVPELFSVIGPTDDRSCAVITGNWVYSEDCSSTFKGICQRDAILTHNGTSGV

T2: hCLEC12B (human, UniProt Q2HXU8 1-276)
T2 construct: Overexpressed on HEK293 cells
T2 sequence: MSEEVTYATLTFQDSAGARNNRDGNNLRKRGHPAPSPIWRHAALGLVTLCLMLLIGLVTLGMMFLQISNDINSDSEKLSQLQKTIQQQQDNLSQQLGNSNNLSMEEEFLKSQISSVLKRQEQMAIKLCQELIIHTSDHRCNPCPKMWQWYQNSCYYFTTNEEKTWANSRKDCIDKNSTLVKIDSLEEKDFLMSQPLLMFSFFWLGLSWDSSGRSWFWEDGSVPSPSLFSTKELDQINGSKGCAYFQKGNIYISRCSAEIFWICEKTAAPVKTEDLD

T3: hKLRF1 (human, UniProt Q9NZS2 1-231)
T3 construct: Overexpressed on HEK293 cells
T3 sequence: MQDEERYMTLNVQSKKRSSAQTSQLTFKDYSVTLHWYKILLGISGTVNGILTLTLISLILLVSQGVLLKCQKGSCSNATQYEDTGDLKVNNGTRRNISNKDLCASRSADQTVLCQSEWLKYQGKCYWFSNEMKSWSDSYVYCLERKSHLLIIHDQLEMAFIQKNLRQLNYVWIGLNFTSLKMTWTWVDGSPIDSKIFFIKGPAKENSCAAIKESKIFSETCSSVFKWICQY

T4: hCLEC2D (human, UniProt Q9UHP7 1-191)
T4 construct: Overexpressed on HEK293 or K562 cells; the same id is used for endogenous CLEC2D on NALM6 and Raji cells; also called LLT1
T4 sequence: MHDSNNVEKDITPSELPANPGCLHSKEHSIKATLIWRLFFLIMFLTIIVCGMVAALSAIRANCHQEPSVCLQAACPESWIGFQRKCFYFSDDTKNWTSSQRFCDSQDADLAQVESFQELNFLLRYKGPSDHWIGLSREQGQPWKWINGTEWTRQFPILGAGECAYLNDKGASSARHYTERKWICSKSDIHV


Key:
hKLRF2 [1] = target: T1, hKLRF2; assay: flow cytometry, HEK293 transfectants, 100 nM antibody;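 further: antibody applied at a saturating level and incubated with cells for 30 min at room temperature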
Protocol: (§1) For the antibody binding assay, all cell lines were washed in phosphate-buffered saline with 0.1% bovine serum albumin (PBSA) and seeded in a 96 well plate at a density of 4×10⁴ cells per well. Washed cells were resuspended in 100 nM of antibody (a saturating concentration to measure maximum binding on cells) and incubated at room temperature for 30 minutes. […] Cells were analyzed by flow cytometry with a Thermo Fisher Attune flow cytometer.
(§2) Data were analyzed using FlowJo software. MFI for each sample was calculated and exported into Graphpad Prism.

hCLEC12B [2] = target: T2, hCLEC12B; assay: as above
Protocol: as §1, §2

hKLRF1 [3] = target: T3, hKLRF1; assay: as above
Protocol: as §1, §2

hCLEC2D [4] = target: T4, hCLEC2D; assay: as above
Protocol: as §1, §2

hCLEC12B [5] = target: T2, hCLEC12B; assay: flow cytometry; 100 nM antibody on HEK293 cells expressing CLEC12B; Alexa Fluor 647 anti-human IgG; MFI
Protocol: as §1, §2

hCLEC2D [6] = target: T4, hCLEC2D; assay: flow cytometry; 100 nM antibody on HEK293 cells expressing CLEC2D; Alexa Fluor 647 anti-human IgG; MFI
Protocol: as §1, §2

hKLRF2 [7] = target: T1, hKLRF2; assay: flow cytometry; 100 nM antibody on HEK293 cells expressing KLRF2; Alexa Fluor 647 anti-human IgG; MFI
Protocol: as §1, §2

hKLRF1 [8] = target: T3, hKLRF1; assay: flow cytometry; 100 nM antibody on HEK293 cells expressing KLRF1; Alexa Fluor 647 anti-human IgG; MFI
Protocol: as §1, §2

hCLEC2D [9] = target: T4, hCLEC2D; assay: flow cytometry; 100 nM antibody on HEK293 cells expressing CLEC2D; Alexa Fluor 647 anti-human IgG; MFI; remark: listed apart in the source
Protocol: as §1, §2

hCLEC12B [10] = target: T2, hCLEC12B; assay: flow cytometry; 100 nM antibody on HEK293 cells expressing CLEC12B; Alexa Fluor 647 anti-human IgG; MFI; remark: listed apart in the source
Protocol: as §1, §2

hKLRF1 [11] = target: T3, hKLRF1; assay: flow cytometry; 100 nM antibody on HEK293 cells expressing KLRF1; Alexa Fluor 647 anti-human IgG; MFI; remark: listed apart in the source
Protocol: as §1, §2

hKLRF2 [12] = target: T1, hKLRF2; assay: flow cytometry; 100 nM antibody on HEK293 cells expressing KLRF2; Alexa Fluor 647 anti-human IgG; MFI; remark: listed apart in the source
Protocol: as §1, §2

Binder | % of CD161 binding (hKLRF2 [1]) [%] | % of CD161 binding (hCLEC12B [2]) [%] | % of CD161 binding (hKLRF1 [3]) [%] | % of CD161 binding (hCLEC2D [4]) [%] | binding result (hCLEC12B [5]) | binding result (hCLEC2D [6]) | binding result (hKLRF2 [7]) | binding result (hKLRF1 [8]) | binding result (hCLEC2D [9]) | binding result (hCLEC12B [10]) | binding result (hKLRF1 [11]) | binding result (hKLRF2 [12])
Ab17 (antibody, human IgG1, V domains shown, IgG purified from yeast culture) VH: QVQLVESGGGLVKPGGSLRLSCAASGFTFSDYYMSWIRQAPGKGLEWVSYISPSGATIYYADSVKGRFTISRDNAKNSLYLQMNSLRAEDTAVYYCARSLMSTGTHLYFDLWGRGTLVTVSS VL: DIQLTQSPSSVSASVGDRVTITCRASQGISSWLAWYQQKPGKAPKLLIYAASSLQSGVPSRFSGSGSGTDFTLTISSLQPEDFATYYCQQVTSVPPYTFGGGTKVEIK | 0.051 | 0.038 | 0.078 | 1.08 | no binding (tested: 100 nM) | no binding (tested: 100 nM) | no binding (tested: 100 nM) | no binding (tested: 100 nM) |  |  |  | 
Ab19 (antibody, human IgG1, V domains shown, IgG purified from yeast culture) VH: QVQLVESGGGLVKPGGSLRLSCAASGFTFSQYYMSWIRQAPGKGLEWVSYISPSGATIYYADSVKGRFTISRDNAKNSLYLQMNSLRAEDTAVYYCARSLMATGTHLYFDLWGRGTLVTVSS VL: DIQLTQSPSSVSASVGDRVTITCRASQGISSWLAWYQQKPGKAPKLLIYAASALQSGVPSRFSGSGSGTDFTLTISSLQPEDFATYYCQQVTSAPPYTFGGGTKVEIK | 0.22 | 0.26 | 0.305 | 0.97 | no binding (tested: 100 nM) | no binding (tested: 100 nM) | no binding (tested: 100 nM) | no binding (tested: 100 nM) |  |  |  | 
Ab20 (antibody, human IgG1, V domains shown, IgG purified from yeast culture) VH: QVQLVESGGGLVQPGGSLRLSCAASGFTFSQYYMSWIRQAPGKGLEWVSYISPSGATIAYADSVKGRFTISRDNAKNSLYLQMNSLRAEDTAVYYCARSLMSTGTHLYFDLWGRGTLVTVSS VL: DIQLTQSPSSVSASVGDRVTITCRASQGISSWLAWYQQKPGKAPKLLIYAASVLQSGVPSRFSGSGSGTDFTLTISSLQPEDFATYYCQQVTSFLPYTFGGGTKVEIK | 0.054 | 0.061 | 0.132 | 0.968 | no binding (tested: 100 nM) | no binding (tested: 100 nM) | no binding (tested: 100 nM) | no binding (tested: 100 nM) |  |  |  | 
Ab7 (antibody, human IgG1, V domains shown, IgG purified from yeast culture) VH: EVQLLESGGGLVQPGGSLRLSCAASGFTFGQYAMSWVRQAPGKGLEWVSAISAAGGTTYYADSVKGRFTISRDNSKNTLYLQMNSLRAEDTAVYYCAKPLDSSQWADFDLWGRGTLVTVSS VL: DIQLTQSPSSVSASVGDRVTITCRASQGISSWLAWYQQKPGKAPKLLIYAASFLQSGVPSRFSGSGSGTDFTLTISSLQPEDFATYYCQQASVLPITFGGGTKVEIK | 0.04 | 0.011 | 0.018 | 1.09 |  |  |  |  | no binding (tested: 100 nM) | no binding (tested: 100 nM) | no binding (tested: 100 nM) | no binding (tested: 100 nM)
Ab6 (antibody, human IgG1, V domains shown, IgG purified from yeast culture) VH: EVQLLESGGGLVQPGGSLRLSCAASGFTFGQYAMSWVRQAPGKGLEWVSAISAAGGTTYYADSVKGRFTISRDNSKNTLYLQMNSLRAEDTAVYYCAKPLDSSQWADFDLWGRGTLVTVSS VL: DIQLTQSPSSVSASVGDRVTITCRASQGISSWLAWYQQKPGKAPKLLIYAASSLQSGVPSRFSGSGSGTDFTLTINSLQPEDFATYYCQQAWVLPITFGGGTKVEIK | 0.029 | 0.011 | 0.036 | 1.01 |  |  |  |  | no binding (tested: 100 nM) | no binding (tested: 100 nM) | no binding (tested: 100 nM) | no binding (tested: 100 nM)
Ab5 (antibody, human IgG1, V domains shown, IgG purified from yeast culture) VH: EVQLLESGGGLVQPGGSLRLSCAASGFTFGQYAMSWVRQAPGKGLEWVSAISAVGGTTAYADSVKGRFTISRDNSKNTLYLQMNSLRAEDTAVYYCAKPLDSSLWADFQLWGRGTLVTVSS VL: DIQLTQSPSSVSASVGDRVTITCRASQDISSWLAWYQQKPGKAPKLLIYFASSLQSGVPSRFSGSGSGTDFTLTISSLQPEDFATYYCQQASKLPITFGGGTKVEIK | 0.035 | 0.056 | 0.059 | 0.872 |  |  |  |  | no binding (tested: 100 nM) | no binding (tested: 100 nM) | no binding (tested: 100 nM) | no binding (tested: 100 nM)
Ab2 (antibody, human IgG1, V domains shown, IgG purified from yeast culture) VH: EVQLLESGGGLVQPGGSLRLSCAASGFAFSTYAMSWVRQAPGKGLEWVSAISGVGGTTYYADSVKGRFTISRDNSKNTLYLQMNSLRAEDTAVYYCAKPLDSSLWADFDLWGRGTLVTVSS VL: DIQLTQSPSSVSASVGDRVTITCRASQGISSWLAWYQQKPGKAPKLLIYYASSLQDGVPSRFSGSGSGTDFTLTISSLQPEDFATYYCQQASVLPITFGGGTKVEIK | 0.049 | 0.057 | 0.032 | 0.863 |  |  |  |  | no binding (tested: 100 nM) | no binding (tested: 100 nM) | no binding (tested: 100 nM) | no binding (tested: 100 nM)
Ab4 (antibody, human IgG1, V domains shown, IgG purified from yeast culture) VH: EVQLLESGGGLVQPGGSLRLSCAASGFTFERYAMSWVRQAPGKGLEWVSAISAVGGTTKYADSVKGRFTISRDNSKNTLYLQMNSLRAEDTAVYYCAKPLDSSLWADFDAWGRGTLVTVSS VL: DIQLTQSPSSVSASVGDRVTITCRASQGISSWLAWYQQKPGKAPKLLIYAASGLQSGVPSRFSGSGSGTDFTLTISSLQPEDFATYYCQQASYLPITFGGGTKVEIK | 0.056 | 0.074 | 0.095 | 1.11 |  |  |  |  | no binding (tested: 100 nM) | no binding (tested: 100 nM) | no binding (tested: 100 nM) | no binding (tested: 100 nM)
Ab1 (antibody, human IgG1, V domains shown, IgG purified from yeast culture) VH: EVQLLESGGGLVQPGGSLRLSCAASGFAFSTYAMSWVRQAPGKGLEWVSAISAAGGTTYYADSVKGRFTISRDNSKNTLYLQMNSLRAEDTAVYYCAKPLDSSLWADFDLWGRGTLVTVSS VL: DIQMTQSPSSVSASVGDRVTITCRASQGIDSWLAWYQQKPGKAPKLLIYAASSLQSGVPSRFSGSGSGTDFTLTISSLQPEDFATYYCQQASVLPITFGGGTKVEIK | 0.036 | 0.04 | 0.073 | 0.975 |  |  |  |  | no binding (tested: 100 nM) | no binding (tested: 100 nM) | no binding (tested: 100 nM) | no binding (tested: 100 nM)
